Entries after “also recorded” stand apart in the source; their conditions may differ. Where no end group is shown, it is not given here.
Key:
[1] = Electron microscopy size measurement of the lipid-peptide complexes; assay type: physicochemical; conditions: complex with DPPC, from electromicrographs
Procedure: Phospholipid-peptide complexes, at a protein concentration of 150 μg/ml, were negatively stained with a 20 g/l solution of potassium phosphotungstate (pH 7.4). 7 μl of the samples were applied to Formvar carbon-coated grids and examined in a Zeiss EM 10C transmission electron microscope operating at 60 kV. Particle size was determined by measuring 120 discrete particles for each sample. The mean diameter and the size distribution of the complexes were calculated.

[2] = Orientation of helices and acyl chains by polarized ATR infrared spectroscopy; assay type: physicochemical; conditions: peptide-DMPC complexes
Procedure: Attenuated Total Reflection (ATR) infrared spectroscopy was used for the determination of the relative orientation of the apolipoprotein alpha-helical segments and of the phospholipid acyl chains as previously described for apo AI and apo AI-phospholipid complexes and for LDL (Vanloo et at., 1991). For these measurements, a 70 μL solution of 20 μg isolated complex in a 0.005M Tris-HCl buffer pH 8.4, was spread on a ATR Germanium crystal plate. Deuteration of the sample was performed by flushing N2, saturated with D2 O, in a sealed universal Perkin-Elmer sample holder, at room temperature for 3 hours, in order to avoid overlapping of the absorption bands for random and alpha-helical structures.
Spectra were recorded on a Perkin Elmer 1720X infrared spectrophotometer, using polarized incident light with a perpendicular (90°) and parallel (0°) orientation. A dichroic spectrum was obtained by substracting the spectrum recorded with polarized light at 0° from that at 90°. A positive deviation on the dichroic spectrum indicates a dipole preferentially oriented close to a normal to the plane, while a larger absorbance at 0° is indicative of a dipole oriented close to the Ge crystal plane. The angle between a normal to the Ge crystal and the dipole is obtained from the calculation of the dichroic ratio Ratr =A(90°)/A(0°), representing the ratio of the absorbances on the spectra recorded with polarized light at 90° and 0° . For each experiment, up to 15 scans were stored and averaged.
In order to determine the orientation of the alpha-helices with respect to the DMPC bilayer, ATR infrared spectra of DMPC and of the isolated peptide-DMPC complexes were recorded at two orthogonal linear polarizations of the incident light. […] This value is close to that measured for the apo AI-DMPC complex (Vanloo et al.,1991), and higher than that for pure DMPC. For the M1, M2, M3 and M4 peptide-DMPC complexes, the corresponding angles between the peptide and an axis perpendicular to the Ge plane are respectively 25°, 25°, 34° and 31°.

[3] = target: T1, semi-purified LCAT enzyme (Homo sapiens, UniProt P04180); test: LCAT activation properties of the phospholipid-peptide complexes (HPLC of cholesteryl esters); assay type: biochemical; conditions: for Vmax compared with other complexes / apo AI-phospholipid complexes: Lineweaver-Burk plots; for Vmax (LCAT activation): PLPC/cholesterol/peptide discoidal complex as substrate, apparent kinetic constant, 37° C.; for kinetics of cholesterol esterification by LCAT (time course): discoidal complexes with PLPC and cholesterol, 0-24 h; for Vmax/Km A % of apo A1 (LCAT activation): relative to apo AI-phospholipid complex = 100
T1 construct: corresponds to the concentration relative to that in plasma by a factor of 5100, with the major contaminant being albumin; from tissue
T1 sequence (P04180 25-440): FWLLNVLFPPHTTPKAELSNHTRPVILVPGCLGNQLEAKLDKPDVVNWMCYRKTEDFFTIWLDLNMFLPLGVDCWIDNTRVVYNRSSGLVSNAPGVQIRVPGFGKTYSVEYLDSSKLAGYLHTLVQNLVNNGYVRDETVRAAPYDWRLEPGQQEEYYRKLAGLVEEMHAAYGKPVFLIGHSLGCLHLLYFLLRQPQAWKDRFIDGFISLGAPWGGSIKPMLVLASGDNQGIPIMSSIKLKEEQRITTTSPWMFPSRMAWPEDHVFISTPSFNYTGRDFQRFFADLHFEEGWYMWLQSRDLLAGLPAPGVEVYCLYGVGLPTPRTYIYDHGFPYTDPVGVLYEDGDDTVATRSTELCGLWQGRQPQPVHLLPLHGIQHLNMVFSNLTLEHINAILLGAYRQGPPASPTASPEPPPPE
Procedure: The activity of the LCAT enzyme with the various peptide-lipid complexes as substrates was determined by measuring the mount of cholesteryl esters generated during the enzymatic reaction by HPLC (Vercaemst et al., 1989).
The assay mixture consisted of variable mounts of complexes at cholesterol concentrations varying between 5 and 100 μM, 5 mg defatted bovine serum albumin (Sigma), 6 mM beta-mercaptoethanol in a reaction volume of 0.2 ml. After a preincubation of 20 min at 37° C., the enzymatic reaction was initiated by adding 3-6 μl of the semi-purified LCAT enzyme. The reaction was followed at 37° C. and was stopped by extraction of the incubation mixture with hexane-isopropanol 3:2, v/v. The solvent mixture contained either cholesteryl heptadecanoate (Sigma) or beta-sitosterol (Sigma) as internal standards for respectively cholesteryl esters and unesterified cholesterol quantification.
The unesterified cholesterol and the cholesteryl esters are identified and quantified by isocratic HPLC on a reversed-phase Zorbax ODS column, eluted with acetonitrile-isopropanol at a ratio of 90:10 v/v for unesterified cholesterol and of 50:50 v/v for cholesteryl esters. Detection was performed by measuring the UV absorbance at 205-210 nm. At a column temperature of 50° C. and with a flow-rate of 1.2 ml/min, the separation is completed within 25 min (Vercaemst et al., 1989). The sensitivity of this HPLC technique is similar to that of the conventional radioactive assay for polyunsaturated lecithin substrates (50 ng), and is about twice as low for saturated lecithins (80 ng).
The time course of cholesterol esterification by the LCAT enzyme with discoidal substrates consisting of PLPC, cholesterol, and the synthetic peptides, was followed between 0 and 24 h (Jonas, 1987). For the determination of the kinetic parameters, the initial velocities were determined in the linear portion of the curves, i.e. between 0-30% cholesteryl esters formation. The sample concentrations were in the range of 5×10^-7 to 5×10^-6 M with a constant enzyme volume of 5 μl, so that a linear production of cholesteryl esters formation was measured within 10 min at 37° C.
The initial kinetics (Vo) as a function of the apoprotein or peptide (C) concentrations were analyzed using a Lineweaver-Burk plot of 1/Vo versus 1/C. Linear regression analysis yielded the apparent kinetic parameters: Vmax, Km and Vmax/Km for each apoprotein or peptide-lipid complex. All kinetic experiments were performed at least three times and Vmax and Km values were expressed as mean ±error on the intercept and slope of the regression line.
The kinetics of the reaction of the semi-purified LCAT enzyme with discoidal complexes generated between the peptides, PLPC and cholesterol as substrate were followed between 0 and 24 h, and compared with those of the apo AI/PLPC/cholesterol complexes. The expression "semi-purified" corresponds to the concentration relative to that in plasma by a factor of 5100, with the major contaminant being albumin. The time course of the reaction, expressed as the percentage of esterified cholesterol as compared with the original substrate is shown on FIGS. 5a, 5b and 6 and in Table 2. […] After 24 h, more than 90% of the initial cholesterol present in all substrates was converted into cholesteryl esters (FIG. 5a).

Row | Substance | Diameter MEAN ± SD [1] [Å] | angle between the peptide and an axis perpendicular to the Ge plane [2] [°] | Vmax compared with other complexes / apo AI-phospholipid complexes [3] | Vmax (LCAT activation) [3] [nmol CE/h] | kinetics of cholesterol esterification by LCAT (time course) [3] | Vmax/Km A % of apo A1 (LCAT activation) [3] [%] | time at which plateau of esterification was reached ([3]; saturable kinetics) [h]
1 | EWLKAFYKKVLEKLKELF [M1] | 209 ± 33 | 25 | two to three times lower; also recorded: considerably lower | 2.41 | fastest kinetics | 15.4 | 
2 | EWLEAFYKKVLEKLKELF [M4] | 150 ± 25 | 31 | two to three times lower | 1.53 | fastest kinetics |  | 
3 | EWLKAEYEKVEEKLKELF [M3] | 175 ± 55 | 34 | considerably lower | 0.33 | low rate of cholesterol esterification | 10.7 | 
4 | apo AI: native plasma apo AI purified from human plasma; major apoprotein constituent of HDL | 128 ± 22 |  |  | 5.89 | fastest kinetics | 100.0 | 2 to 4
5 | EWLKAEYEKVLEKLKELF [M2] | 173 ± 45 | 25 |  | 0.33 | low rate of cholesterol esterification | 3.3 | 
